# In patent US7056679 (ANTYRA, dated 2006):
# T1: DGI-2 polypeptide (UniProt Q15004 1-111, limits assumed)
# T1 construct: Soluble recombinant protein coated at 500 ng/well; vector tag of pIVEX2.3-MCS not described for this construct; also called KIAA0101
# T1 sequence (looked up): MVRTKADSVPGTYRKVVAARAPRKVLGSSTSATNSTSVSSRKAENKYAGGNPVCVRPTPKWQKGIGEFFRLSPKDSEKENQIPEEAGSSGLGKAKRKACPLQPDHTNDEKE
# B1: DGI-2-20F-PP-C11 (peptide)
# peptide: TPVAISIPAGVCSTSVCGRDAAAGAPVPYPDPLEPRP
# B2: DGI-2-20F-PP-H1 (peptide)
# peptide: RDHRYVGWGRATFRHDQSVWAAAGAPVPYPDPLEPRP
# B3: DGI-2-20F-PP-F3 (peptide)
# peptide: EGQRVVFLFGALVAGLCWRDRAAAGAPVPYPDPLEPRP
# B4: DGI-2-20F-PP-E10 (peptide)
# peptide: MGADTCMGGKMPFDQMFGAVAAAGAPVPYPDPLEPRP
# B5: DGI-2-20F-PP-H6 (peptide)
# peptide: RGVNSDMPRLYICRADGQGQAAAGAPVPYPDPLEPRP
# B6: DGI-2-20F-PP-E1 (peptide)
# peptide: FGSTAYADMLSQFRKFAMNISAAAGAPVPYPDPLEPRP
# B7: DGI-2-20F-PP-B11 (peptide)
# peptide: VGHLLSRCAHHSPGMGASPYGAAAGAPVPYPDPLEPRP
# B8: DGI-2-20F-PP-A9 (peptide)
# peptide: TFTRDVAGPAVSFVRLHSWNAAAGAPVPYPDPLEPRP
# B9: DGI-2-20F-PP-G2 (peptide)
# peptide: VSGVPDGSMRAAQLASGYWCAAAGAPVPYPDPLEPRP
# B10: DGI-2-20F-PP-E11 (peptide)
# peptide: SAFGCPLPRALGGGGARFYAAAAGAPVPYPDPLEPRP
# B11: DGI-2-20F-PP-E2 (peptide)
# peptide: FGRDGDGIQRRQGGFSWVGDRAAAGAPVPYPDPLEPRP
# B12: DGI-2-20F-PP-B6 (peptide)
# peptide: LFRFSGTGMASLPCVGWHLVAAAGAPVPYPDPLEPRP
# B13: DGI-2-20F-PP-G5 (peptide)
# peptide: GASRVVDVGWRFWGKLWQRSAAAGAPVPYPDPLEPRP
# B14: DGI-2-20F-PP-H7 (peptide)
# peptide: FRVALLSVSAGPCEGSGNTAAAGAPVPYPDPLEPRP
# B15: DGI-2-20F-PP-C2 (peptide)
# peptide: GLYQRGLAPRCRGERFGVRNAAAGAPVPYPDPLEPRP
# B16: DGI-2-20F-PP-F8 (peptide)
# peptide: LLLPVRWRDAQPRSLLMEWIAAAGAPVPYPDPLEPRP
# B17: DGI-2-20F-PP-F5 (peptide)
# peptide: GGSLPVKSGQLVTCCTSKGGAAAGAPVPYPDPLEPRP
# B18: DGI-2-20F-PP-D5 (peptide)
# peptide: WVVALRRIRLGLRRGVECLLAAAGAPVPYPDPLEPRP
# Biological target: T2, antibody raised against ETAG
# T2 construct: Coated at 500 ng/well; also called E-tag antibody
# Test: phage ELISA
# Method: (§1) For analysis of individual target binders, colonies were picked and phage prepared as described above using helper phage, M13KO7. Ninety-six-well microtiter plates were coated with 500 ng/well of specific target protein, 500 ng/well lactate dehydrogenase (LDH) irrelevant or non-specific target, 500 ng/well of positive control antibody raised against ETAG, and negative control of non-fat milk powder-PBS 2% at 4° C. overnight. Plates were then blocked with 350 microliters/well PBS containing 2% non-fat milk for 1 hr at room temperature. One hundred microliters per well of phage from isolated clones were added and plates were incubated at room temperature for 2 hr after centrifuging samples for 20 minutes at 3500 rpm at 4° C. The phage solution was then removed, and the wells were washed three times with PBS at room temperature. Antibody raised against M13 conjugated to horseradish peroxidase (Pharmacia) was diluted 1:3000 in PBS-Tween and added to each well (100 µl/well). Incubation was for 1 hr at room temperature, followed by washing with PBS-(0.5%) Tween 3 times as described. Color was developed by addition of ABTS solution (100 µl/well; Boehringer, Indianapolis, Ind.). Plates were analyzed at 405 nm. A clone was considered "positive" if the $A405$ of the well was $\geq$2-fold over background.
row,Binder,ETAG (OD)
1,B1,3.2 OD
2,B2,1.4 OD
3,B3,18.7 OD
4,B4,44.6 OD
5,B5,18.9 OD
6,B6,33.4 OD
7,B7,40.8 OD
8,B8,40.8 OD
9,B9,5.6 OD
10,B10,15.2 OD
11,B11,11.6 OD
12,B12,37 OD
13,B13,27.7 OD
14,B14,3.7 OD
15,B15,6 OD
16,B16,7.6 OD
17,B17,16.3 OD
18,B18,33.6 OD

# Biological target: T1, DGI-2 polypeptide
# Test: phage ELISA
# Method: as §1
Binder,DGI-2 (OD),DGI-2/LDH
B1,2.4 OD,2.6 ratio
B2,1.7 OD,1.4 ratio
B3,2.6 OD,2.2 ratio
B4,2 OD,1.7 ratio
B5,1.6 OD,1.9 ratio
B6,1.8 OD,1.9 ratio
B7,2.6 OD,2.7 ratio
B8,2.7 OD,2.3 ratio
B9,2.4 OD,2.1 ratio
B10,2 OD,2.2 ratio
B11,1.7 OD,2.4 ratio
B12,2.5 OD,2.6 ratio
B13,2.4 OD,2 ratio
B14,1.8 OD,2.1 ratio
B15,2.7 OD,2.5 ratio
B16,2 OD,1.9 ratio
B17,2.3 OD,2.5 ratio
B18,2.7 OD,2.3 ratio

# Biological target: T3, lactate dehydrogenase (LDH)
# T3 construct: Coated at 500 ng/well as non-specific target; also called LDH polypeptide
# Test: phage ELISA
# Method: as §1
row,Binder,LDH (OD)
1,B1,0.9 OD
2,B2,1.2 OD
3,B3,1.1 OD
4,B4,1.2 OD
5,B5,0.8 OD
6,B6,1 OD
7,B7,1 OD
8,B8,1.2 OD
9,B9,1.1 OD
10,B10,0.9 OD
11,B11,0.7 OD
12,B12,1 OD
13,B13,1.2 OD
14,B14,0.8 OD
15,B15,1.1 OD
16,B16,1.1 OD
17,B17,0.9 OD
18,B18,1.2 OD
